Assay results: patent US20250084126A1, “PEPTIDE AND COMPOSITION” (OSAKA UNIVERSITY, priority 2021, published 2025)
No end group written: not given here.

What was measured:
hDPSCs [1] = test: LDH-assay cytotoxicity to hDPSCs; format: cell-based, human; settings: for cytotoxicity, overall conclusion: 0.1-100 μg/ml, versus PBS; for cytotoxicity compared to the control (LDH-assay): 2 days, control PBS, p<0.05
Experimental: The hDPSCs were seeded in α-MEM medium containing 10% FBS added with the four peptides at concentrations of 0.1, 1, 10, and 100 μg/ml in a 96 well plate at 5,000 cells/well and cultured at 37° C. for 2 days in a 5% CO2 gas phase. For toxicity test, culture supernatant was collected and LDH-assay was performed using LDH Cytotoxicity Detection Kit (Takara Bio Inc., Shiga). A reagent was added to the collected culture supernatant, and the culture supernatant was placed at 37° C. for 30 minutes in the 5% CO2 gas phase. The absorbance at 405 nm was then measured using the microplate reader (ARVO MX). To further evaluate the proliferative capacity, WST-1-assay was performed using Premix WST-1 Cell Proliferation Assay System (Takara Bio Inc.) after the cells had been continuously cultured for 1 day. The culture was added with a WST-1 reagent and allowed to stand for 30 minutes at 37° C. in the 5% CO2 gas phase. After shaking for 1 minute at room temperature, the absorbance at 450 nm was measured using the microplate reader (ARVO MX). A sample in which the PBS was added to the culture was used as a control, and the number of samples was 6 for each condition.
(§1) The statistical significance test in the above experiment was performed using the One-way ANOVA and Tukey's test for a cytotoxicity test and Kruskal-Wallis-test for a cell proliferation test and a comparison of the amount of formed tertiary dentin in the direct pulp capping experiment, with a critical value of 5%.

hDPSCs [2] = test: Proteome analysis (LC-MS/MS) of proteins expressed by hDPSCs; format: cell-based, human; settings: 0.1 mM, 7 days
Experimental: The No. 28 peptide or the recombinant S100-A8, the protein from which the No. 28 peptide is derived, was applied to the hDPSCs to compare and quantify the proteins expressed by the hDPSCs by the LC-MS/MS. The hDPSCs were seeded in a 100 mm cell culture dish at 3,000,000 cells/plate in the mineralization induction medium containing each of the samples containing the No. 28 peptide or the S100-A8 at a concentration of 0.1 mM, and cultured at 37° C. in the 5% CO2 gas phase for 7 days. Then, plasma membrane and cytoplasmic proteins were extracted using a plasma membrane protein extraction kit (Cosmo Bio Co., Ltd., Tokyo). As a practical procedure, the hDPSCs were cultured for 7 days, collected with a scraper, added with Buffer A included in the kit, and left on ice for 10 minutes. The hDPSCs were then transferred into a microtube with a filter cartridge included in the kit and centrifuged at 14,000 rpm for 30 seconds. After discarding the cartridge and agitating for 10 seconds, the microtube was centrifuged at 3000 rpm for 1 minute and the supernatant was collected. The collected supernatant was then centrifuged at 14,000 rpm for 30 minutes to extract the cytoplasmic proteins separated in a supernatant and the plasma membrane proteins separated in pellet. As a control, the hDPSCs cultured in mineralization induction medium supplemented with the PBS were used.
Each sample was analyzed by liquid chromatography using UltiMate 3000 Nano LC systems (Thermo Fisher Scientific, USA) and ESI-column (0.075×150 mm) (Thermo Fisher Scientific). A 0.1% formic acid aqueous solution containing acetonitrile was used as a mobile phase at a flow rate of 300 nL/min. The concentration of acetonitrile was 5% for the first 5 min, increased to 40% in 95 min, then increased at a constant rate for 2 min to 90%, and maintained for 5 min. The peptides were analyzed using Q-Exactive (Thermo Fisher Scientific). Identification and quantitative analysis of the proteins were performed by peptide mass fingerprinting using Mascot Distiller v2.5, Mascot Server v2.5 (Matrix Science, USA), and UniProt on obtained MS/MS spectra.
In addition, to evaluate changes in expression levels of the proteins, the following criteria were used to narrow down the identified plasma membrane-derived and cytoplasm-derived proteins among the samples.
• Proteins whose measured values were higher in the S100-A8 group than in the control group • Proteins whose measured values in the peptide group are more than twice as high as those in the control group • Proteins whose measured values in both the peptide group and the S100-A8 group are equal to or greater than 1 (a.u.; arbitrary unit)
• Proteins whose measured values were lower in the S100-A8 group than in the control group • Proteins whose measured values in the control group are more than twice as high as those in the peptide group • Proteins whose measured values in the control group are equal to or greater than 1 (a.u.; arbitrary unit)
Each of the groups narrowed down by the above criteria was analyzed using Gene Ontology (GO) classification. The GO provides an internationally standardized GO Term, which is intended to describe biological functions. The GO Term is organized in a hierarchical structure, with the upper order representing general functions and the lower order representing more detailed functions. For example, there are three categories at the top: “Molecular function,” “Biological process,” and “Cellular component.”
The GO Term belonging to “Molecular function” and “Biological process” which represent their respective functions from the above classification were searched for the protein groups obtained in this experiment, and the functions characteristic to each protein group were examined.

exposed pulp = settings: rat in vivo, reported in Non Patent Literature 1; cited from earlier work
[3] = tested on: exposed pulp of rat molars; test: Direct pulp capping experiment using Protein S100 family-derived peptide; format: in vivo; settings: 4 weeks; for structure of the tertiary dentin compared to the samples treated with the peptides (HE staining): 1 μg/ml; for number of samples with tertiary dentin formation that completely sealed the exposed pulp region: micro-CT scoring, n=8 per condition, peptides 100 μg/ml, recombinant proteins 1 μg/ml, 20 μl in gelatin sponge; for closure of the surface of the exposed pulp (HE staining): representative samples with complete tertiary dentin formation
Experimental: To evaluate the effect of the Protein S100 family-derived peptide on ability of forming of the tertiary dentin, a direct pulp capping experiment was performed on rat molars using a gelatin sponge (Spongel®) soaked with 20 μl of each PBS solution containing the No. 28, No. 47, No. 32, or No. 51 peptide at a concentration of 100 μg/ml using the same way as described in the section 1) of “Materials and Methods” of the section 1 of the section I above. PBS solution containing the S100-A8 (PROSPEC, Israel), the PBS solution containing the S100-A9 (PROSPEC), wherein the S100-A8 and S100-A9 are a recombinant of the protein from which the peptide was derived, at a concentration of 1 μg/ml, and the PBS solution alone were used as controls. After 4 weeks from the capping treatment, the micro-CT imaging and image analysis were performed on the tertiary dentin formed just below the exposed pulp. An evaluation method, in which the amount of formed tertiary dentin observed in histopathological images was scored, in the direct pulp capping experiment conducted by Okamoto et al. in the past, was applied to the micro-CT images in this study, and the evaluation was performed by scoring the formed tertiary dentin [Clinical Oral Investigations 2018, 22(8):2879-2887; Journal of Dentistry 2010, 38(10):828-837]. The evaluation was performed by one person, with a score of Grade 0 in cases where the tertiary dentin was formed in only one-third or less of the exposed pulp region, Grade 1 in cases where the tertiary dentin was formed in one-third to two-thirds of the exposed pulp region, Grade 2 in cases where the tertiary dentin was formed in two-thirds or more of the exposed pulp region, and Grade 3 in cases where the formed tertiary dentin was completely covering the exposed pulp region. In addition, the same micro-CT images were analyzed using the same way as described in the section 2) of “Materials and Methods” of the section 1 of the section I above to evaluate the volume of the formed tertiary dentin. HE staining was also performed using the same way as described in the section 3) of “Materials and Methods” of the section 1 of the section I above, and histopathological evaluation of the formation of the tertiary dentin was performed. The number of samples was 8 for each condition.
as §1

pulp cells = settings: reported in Non Patent Literature 1; cited from earlier work
[4] = mineralization induction medium, count for No. 28 peptide or S100-A8 jointly

With “KLLETECPQ [No. 28 peptide, Lys-Leu-Leu-Glu-Thr-Glu-Cys-Pro-Gln]” the “cytotoxicity, overall conclusion” value (hDPSCs [1]) was “comparable to that of the PBS” and the “cytotoxicity compared to the control (LDH-assay)” value (hDPSCs [1]; all concentrations (0.1, 1, 10, 100 μg/ml)) was “significantly lower cytotoxicity”.

In the case of “NADKQLSFE [No. 51 peptide, Asn-Ala-Asp-Lys-Gln-Leu-Ser-Phe-Glu]”, the “cytotoxicity compared to the control (LDH-assay)” value (hDPSCs [1]; 10 μg/ml) is reported as “significantly lower cytotoxicity”, the “cytotoxicity compared to the control (LDH-assay)” value (hDPSCs [1]; 100 μg/ml) is reported as “significantly lower cytotoxicity” and the “cytotoxicity, overall conclusion” value (hDPSCs [1]) is reported as “comparable to that of the PBS”.

For “NTDGAVNFQ [No. 32 peptide, Asn-Thr-Asp-Gly-Ala-Val-Asn-Phe-Gln]”, the “cytotoxicity compared to the control (LDH-assay)” value (hDPSCs [1]; 1 μg/ml) was “significantly lower cytotoxicity” and the “cytotoxicity, overall conclusion” value (hDPSCs [1]) was “comparable to that of the PBS”.

B1: S100-A8: recombinant of the protein from which the peptide was derived (PROSPEC); UniProtKB-P05109 (protein, UniProt P05109 1-93, looked up)
Protein S100-A8: MLTELEKALNSIIDVYHKYSLIKGNFHAVYRDDLKKLLETECPQYIRKKGADVWFKELDINTDGAVNFQEFLILVIKMGVAAHKKSHEESHKE
In the case of B1, the “expression levels of proteins promoting MAPK signaling pathway (MAP2K1, CDH2, NRAS, MAP1, CRK, PSMB7) versus control” value (hDPSCs [2]; GO Term analysis) is reported as “decreased”, the “expression levels of proteins promoting NFκB signaling pathway (FLOT1, 3KCR1, LYRIC, GJA1, S100A-13, NOL3) versus control” value (hDPSCs [2]; GO Term analysis) is reported as “more increased” and the “cytoplasm-derived proteins whose expression levels were more decreased than in the control” value (hDPSCs [2]; [4]) is reported as 67 proteins. For the same molecule, the “cytoplasm-derived proteins whose expression levels were more increased than in the control” value (hDPSCs [2]; [4]) was 250 proteins, the “plasma membrane-derived proteins whose expression levels were more decreased than in the control” value (hDPSCs [2]; [4]) was 97 proteins and the “plasma membrane-derived proteins whose expression levels were more increased than in the control” value (hDPSCs [2]; [4]) was 158 proteins. The “tertiary dentin induction in the direct pulp capping experiment” value (exposed pulp) was “completely covers the surface of the exposed pulp”, the “structure of the tertiary dentin compared to the samples treated with the peptides (HE staining)” value [3] was “sparse structure” and the “number of samples with tertiary dentin formation that completely sealed the exposed pulp region” value [3] was 1 samples. The “closure of the surface of the exposed pulp (HE staining)” value [3] was “completely closed by the formed tertiary dentin” and the “effect on pulp cells in vitro” value (pulp cells) was “activates proliferation, differentiation, and mineralization abilities”.

B2: S100-A9: recombinant of the protein from which the peptide was derived (PROSPEC); UniProtKB-P06702 (protein, UniProt P06702 1-114, looked up)
Protein S100-A9: MTCKMSQLERNIETIINTFHQYSVKLGHPDTLNQGEFKELVRKDLQNFLKKENKNEKVIEHIMEDLDTNADKQLSFEEFIMLMARLTWASHEKMHEGDEGPGHHHKPGLGEGTP
For B2, the “structure of the tertiary dentin compared to the samples treated with the peptides (HE staining)” value [3] was “sparse structure”, the “number of samples with tertiary dentin formation that completely sealed the exposed pulp region” value [3] was 2 samples and the “closure of the surface of the exposed pulp (HE staining)” value [3] was “completely closed by the formed tertiary dentin”.
